Experimental data taken from patent publication US20120230939A1 (BOARD OF TRUSTEES OF THE UNIVERSITY OF ILLINOIS, published 2012).

B1: PSA 210-230 peptide (peptide)
peptide: CALPERPSLYTKVVHYRKWIK
notes: Synthetic peptide, >95% purity, bought from Research Genetics Inc; also called 21-mer PSA 210-230 peptide

Tests used:
[1] = molecular target: T1, HLA-A0201 (human); test: cell-based or functional assay
T1 construct: whole, on cells; also called HLA-A201; HLA-A2

[2] = molecular target: T1, HLA-A0201; test: T2 binding assay: HLA-A2 expression on T2 cells, flow cytometry
Description: Briefly, T2 cells (5×10⁵/well) were pulsed with PSA-peptide or DMSO at the designated concentration and cultured in 24-well plates overnight (18 hours) at 37° C. in 5% CO₂ atmosphere.

[3] = molecular target: T1, HLA-A0201; test: T2 binding assay: stabilisation of HLA-A2 on T2 cells, flow cytometry
Excerpt: HLA-A2 expression was visualized by direct staining with FITC conjugated MA2.1 antibody or an isotype control (BD Biosciences, San Diego, Calif.) followed by analysis on a FC500 flow cytometer (Beckman Coulter, Miami, Fla.).

Molecule | binding result [3] | further results
anti-HLA-A2 monoclonal antibody (BB7.2) |  | fold decrease in cytolytic activity of CD8+ CTL induced with TEM8 298-306 against HepG2 targets (12-hour chromium release assay) [1]: 2 fold
B1 |  | binding result [2]: binds
TLNEKPFSV (Synthetic peptide, >95% purity) [TEM8 266-274 peptide] | no binding (tested: 1 to 80 ug/ml) | 
ALQGIIHSI (Synthetic peptide, >95% purity) [TEM8 207-215 peptide] | binds | 
SMNDGLSFI (Synthetic peptide, >95% purity) [TEM8 298-306 peptide] | binds | 
